Data from patent publication US10975365B2, “Di-enzymatic chimeric endolysin” (Government of the United States of America, as represented …, priority 2018, dated 2021).

Legend:
[1] = system: GAS, GBS, GCS, S. uberis, S. suis and S. mutants; assay: Bactericidal activity of ClyX-4 on streptococci; format: cell-based; settings: 50 μg/ml; 1 h
Experimental: (a) Bactericidal effects of ClyX-3 against five strains of stationary phase S. pneumoniae. 5 μg/ml of enzymes were mixed with 10^6 bacterial cultures for 5 min. Log killing was determined through the comparisons of PBS treatment and enzymes treatment. (b) Bactericidal effects of ClyX-4 against stationary phase streptococci. 50 μg/ml of enzymes were mixed with 10^6 bacterial culture for 1 h. Log killing was determined through the comparisons of PBS treatment and enzymes treatment;
(§1) With regard to bactericidal assay, bacterial cells were diluted to 2× rich media to generate a final concentration of 5.0×10^6 CFU/ml. 100 μl of the diluted bacterial culture was added into a 96-well titration plate in triplicate and mixed with 100 μl of sterile-filtered enzymes. Plates were sealed and incubated at 37° C. for 5-60 min. After the incubation, bacterial cells were serially diluted in 10-fold increments into sterile PBS and plated on THY/TSB agar. Log killing was calculated as follows: −log[(CFU under enzyme treatment)/(CFU under PBS treatment)].
With regard to applying the design rationale to add a C′ terminal EAD such that two EADs are disposed at each side of the CBD, the process was used to engineer endolysins for increased activity. […]

[2] = system: other streptococci strains; assay: MIC test on other streptococci strains; format: cell-based
Experimental: The MICs of enzymes and antibiotics were determined in a 96-well titration plate in triplicate. Briefly, the overnight pneumococcal culture was diluted with 2×THY to obtain a final concentration of 1×10^7 CFU/ml, and other bacterial species were diluted with 2-folded medium to 1×10^5 CFU/ml. 100 μl of the diluted bacterial culture was subjected into each well, mixing with the serial 2-fold diluted 100 μl of enzymes/antibiotics. PBS buffer was used as a negative control. The plates were sealed via parafilm and statically incubated at 37° C. incubator for 24 h. The MIC was defined as the lowest concentration of treatment that inhibited visible growth of the bacterium.
With regard to applying the design rationale to add a C′ terminal EAD such that two EADs are disposed at each side of the CBD, the process was used to engineer endolysins for increased activity. We created the ClyX-3, the full-length Cpl-1 with an additional C′ terminal PlyC CHAP, and ClyX-4, the full-length PlySs2 with an additional C′ terminal Cpl-1 EAD (GH25) (FIG. 4 and FIG. 6). These constructs were expressed and purified as soluble proteins.

[3] = system: S. pneumoniae ATCC TIGR 4; assay: Bacteriolytic (turbidity reduction) assay; format: cell-based, Streptococcus pneumoniae; settings: 5 μg/ml; OD from 1.0 to 0.2 within the first 2 min; overnight culture
Experimental: (§2) In a bacteriolytic assay, bacterial culture (stationary phase) was harvested at 5,000 for 10 min at 4° C., washed twice and resuspended in PBS buffer, pH7.4. In a 96-well titration plate, the resuspended bacterial solution was mixed 1:1 (u/u) with endolysin to a final OD600 between 0.8 to 1.0. In each run, PBS was included as a negative control. Spectrophotometric readings (OD600) were taken every 15 s over 10 min on a spectrophotometer. Vmax was calculated as the slope of the linear portion and represented the endolysins activity. All experiments were conducted in triplicate to get the standard deviation.
(§3) Bacteriolytic capacity of ClyX-1 and ClyX-1 linkers were analyzed via the turbidity reduction assay against the overnight culture of S. pneumoniae ATCC TIGR 4. Both enzymes-induced lysis of the bacterial peptidoglycan caused a decrease in OD from 1.0 to 0.2 (80%) within the first 2 min of the turbidity assay at 5 μg/ml as shown in FIG. 9a. The linkers were the only difference between these two enzymes, and the unstructured region of PlyCA GyH, PlyCA CHAP, and Cpl-1 CBD provide optimal flexibility for enzymatical activity. High lytic activity correlated with data for bacterial survival after chimera treatment. ClyX-1 sterilized cultures for 5 min, causing a decrease in TIGR 4 viability of ˜6 log, at as low as 0.5 μg/ml (FIG. 9b). […]

TIGR 4 = assay: Bactericidal assay (log killing), 5 min; format: cell-based, Streptococcus pneumoniae; settings: 0.5 μg/ml
Experimental: as §1
as §3, with “9b). Stability of ClyX-1 at different temperature and pH was surveyed to determine optimal conditions.” for “9b).”

[4] = system: stationary phase S. pneumoniae TIGR 4; assay: Temperature stability and pH optimum of ClyX-1 by turbidity reduction assay; format: cell-based, Streptococcus pneumoniae
Experimental: as §2
The optimal biochemical conditions for ClyX-1 against stationary phase S. pneumoniae TIGR 4 were determined using the turbidity reduction assay described above. For temperature stability, ClyX-1 was incubated at indicated temperatures (4° C., 16° C., 25° C., 37° C., 45° C., 55° C., or 65° C.)/tsb for 30 min, recovered on ice for 5 min, and subjected to the spectrophotometric analysis. For optimal pH condition, pneumococci TIGR 4 were suspended in 40 mM boric acid/phosphoric acid (BP) buffer, pH 3-10, and were challenged against ClyX-1.

S. pneumoniae strains = assay: Antimicrobial spectrum of ClyX-1 by turbidity reduction assay, pneumococci; format: cell-based, Streptococcus pneumoniae; settings: 14 most frequent serotypes, Lyt 4.4, R36A and R6; 5 μg/ml, 10 min
Experimental: (§4) (b) Bactericidal effects of ClyX-1 against stationary phase S. pneumoniae R6. Different concentrations of ClyX-1 were mixed with 10^6 overnight bacterial culture for 5 min. Log killing was determined through the comparisons of PBS treatment and ClyX-1 treatment. (c)-(d) Biochemical characterization of ClyX-1. The effects of temperature stability (c) and pH (d) were evaluated. […] of ClyX-1 was assayed for lytic activity via turbidity reduction assay against stationary phase S. pneumoniae TIGR 4 cells for 10 min. Values were presented as percentage of lytic activity in a relation to activity observed for pH 7 and 37° C. (e) The host range of ClyX-1. Multiple strains of streptococci were tested for susceptibility. The bacterial cells were washed twice and resuspended in PBS to a final OD600 of 0.9-1.0. The changes of OD600 were presented after treating with […] of ClyX-1 for 10 min;
as §2, with “In each run, PBS was included as a negative control.” left out, “All experiments were conducted in triplicate to get the standard deviation.” left out

other streptococci = assay: Antimicrobial spectrum of ClyX-1 by turbidity reduction assay, other streptococci; format: cell-based; settings: 5 μg/ml, 10 min
Experimental: as §4
as §2, with “In each run, PBS was included as a negative control.” left out, “All experiments were conducted in triplicate to get the standard deviation.” left out

S. pneumoniae D39 = assay: Bactericidal assay on D39, ClyX-1 compared with Cpl-1 and PlyCA; format: cell-based, Streptococcus pneumoniae
Experimental: (§5) (a) Different concentrations of ClyX-1 and Cpl-1 were mixed with 10^6 overnight S. pneumoniae D39 culture for 5 min. The cells were then serial diluted and plated on the THY plates. Log killing was determined through the comparisons of PBS treatment and the enzymes treatment. (b) Female BALB/c mice were injected intraperitoneally with pneumococcus strain S. pneumoniae NS26 at a single dose at 2.95×10^7 colony forming units (CFU) per mouse. One hour after the infection, mice were intraperitoneally received a single dose of different treatments in different amount per mouse. The lines represent the percentage survival of mice for 10 days. The data was plotted as Kaplan-Meier survival curves and analyzed via the Log-rank (Mantel-Cox) test (*P<0.001; **P<0.0001);
as §1
Bactericidal assays were repeated using the three lysins at different concentrations (0.5 μg/ml to 50 μg/ml) on a different strain, D39 (FIG. 10a).

S. pneumoniae NS26 = assay: Mouse systemic infection model, survival; format: in vivo, female BALB/c mice; settings: 10 days
Experimental: as §5
With regard to in vivo mouse infection models, mouse infection experiments were carried out in an ABSL-2 lab. In the mouse systemic infection model, female BALB/c mice (6-8 weeks old) were injected intraperitoneally with S. pneumoniae NS26 at a single dose of 2.95×10^7 CFU/mouse and divided randomly into multiple groups. Bacterial burden in blood and organs in mice 1 h post-infected were confirmed by plating on THY agar as described previously. One hour post-infection, these groups intraperitoneally received a single dose of 20, 40, or 80 μg/mouse of […] (n=10); 20, 40, or 80 μg/mouse of Cpl-1 (n=10); 100 μg/mouse of penicillin G (n=10); or an equal volume of PBS buffer (n=10). The survival data for all groups were recorded for 10 days.
To validate the in vitro bactericidal activity of ClyX-1, we applied a mouse systemic infection model to test the in vivo efficacy of the enzyme. Mice were challenged to a 2-days lethal-dose of 2.95×10^7 CFU. One hour after infection, the mice were intraperitoneally injected a single dose containing different amount of either ClyX-1 or Cpl-1 ranging from 20 μg-80 μg. The antibiotics control was 100 μg/mouse of penicillin G, and the negative control was as PBS, pH7.4 buffer. The mice were then observed and recorded for the survival data. All the mice treated with PBS buffer died within the first 2 days.

[5] = incubated 30 min at indicated temperature before assay

B1: ClyX-4: the full-length PlySs2 with an additional C′ terminal Cpl-1 EAD (GH25); Seq. ID No. 22 (protein)
chain: MTTVNEALNNVRAQVGSGVSVGNGECYALASWYERMISPDATVGLGAGVGWVSGAIGDTISAKNIGSSYNWQANGWTVSTSGPFKAGQIVTLGATPGNPYGHVVIVEAVDGDRLTILEQNYGGKRYPVRNYYSAASYRQQVVHYITPPGTVAQSAPNLAGSRSYRETGTMTVTVDALNVRRAPNTSGEIVAVYKRGESFDYDTVIIDVNGYVWVSYIGGSGKRNYVATGATKDGKRFGNAWGTFKMVKKNDLFVDVSSHNGYDITGILEQMGTTNTIIKISESTTYLNPCLSAQVEQSNPIGFYHFARFGGDVAEAEREAQFFLDNVPMQVKYLVLDYEDDPSGDAQANTNACLRFMQMIADAGYKPIYYSYKPFTHDNVDYQQILAQFPNSLWIAGYGLNDGTANFEYFPSMDGIRWWQYSSNPFDKNIVLLDDEEDDKPKTAGTWKQDSKGWWFRRNNGSFPY
modifications: Bacteriophage
notes: the full-length PlySs2 with an additional C′ terminal Cpl-1 EAD (GH25); ID No. 22
bactericidal activity compared with PlySs2 [1]: more active than PlySs2
activity by MIC compared with parental endolysin and ClyX-2 [2]: better than parental endolysins

B2: ClyX-1: chimeric endolysin, Seq. ID No. 17: Cpl-1 CBD fused between GyH and CHAP catalytic domains of PlyCA (protein)
chain: MSKKYTQQQYEKYLAQPANNTFGLSPQQVADWFMGQAGARPVINSYGVNASNLVSTYIPKMQEYGVSYTLFLMYTVFEGGGAGNWINHYMYDTGSNGLECLEHDLQYIHGVWETYFPPALSAPECYPATEDNAGALDRFYQSLPGRTWGDVMIPSTMAGNAWVWAYNYCVNNQGAAPLVYFGNPYDSQIDSLLAMGADPFTGGSIMEEDDKPKTAGTWKQDSKGWWFRRNNGSFPYNKWEKIGGVWYYFDSKGYCLTSEWLKDNEKWYYLKDNGAMATGWVLVGSEWYYMDDSGAMVTGWVKYKNNWYYMTNERGNMVSNEFIKSGKGWYFMNTNGELADNPSFTKEPDGLITVAGSDRVAANLANAQAQVGKYIGDGQCYAWVGWWSARVCGYSISYSTGDPMLPLIGDGMNAHSIHLGWDWSIANTGIVNYPVGTVGRKEDLRVGAIWCATAFSGAPFYTGQYGHTGIIESWSDTTVTVLEQNILGSPVIRSTYDLNTFLSTLTGLITFK
modifications: Bacteriophage
notes: ID No. 17: Cpl-1 CBD fused between GyH and CHAP catalytic domains of PlyCA
decrease in OD in turbidity assay [3]: 80%
decrease in viability (TIGR 4): ~6 log
optimal pH condition ([4]; BP buffer pH 3-10): 6.5
pH above which activity is lost (protein precipitation) ([4]; BP buffer pH 3-10): above 8
pH below which activity is lost (protein precipitation) ([4]; BP buffer pH 3-10): below 4
temperature above which the activity rapidly dropped [4, 5]: above 45 °C
temperature below which the enzyme was stable with highest activity [4, 5]: below 37 °C
susceptibility of all tested pneumococcal strains (S. pneumoniae strains): susceptible
lysis of other streptococci (other streptococci): lysis of no other streptococci tested
fold increase in activity in vitro against S. pneumoniae compared to the parental enzyme (S. pneumoniae D39; versus parental Cpl-1): ~100 fold
concentration at which the bacteria culture was sterilized (S. pneumoniae D39; within 5 min, tested 0.5 to 50 μg/ml): ≤ 0.5 µg/mL
mice rescued (survival) (S. pneumoniae NS26; 20 μg single i.p. dose 1 h after infection): 30%
mice rescued (survival) (S. pneumoniae NS26; 40 μg single i.p. dose 1 h after infection): 40%
mice rescued (survival) (S. pneumoniae NS26; 80 μg single i.p. dose 1 h after infection): 80%
